Values joined by “and” are separate entries in the source; they are usually repeats but may differ in a detail not shown here. Identical values can stand only once. Like-named read-outs stand apart in the source and are kept apart here.
Key:
[1] = tested on: colorectal and pancreatic cancer biopsies; test: IHC staining of patient tumor biopsies with NEO-101; assay type: binding, human; settings: colorectal and pancreatic biopsies together
Description: Patients enrolled on the clinical diagnostic study agreed to provide their tumor biopsy or surgical specimen to be stained immunohistochemically with NEO-101. Tumor sections were prepared as slides, and two additional slides were prepared for negative control (human IgG1) and positive control (cytokeratin) staining to ensure quality controls for the IHC method. More specifically, tumor biopsy specimens from colorectal and pancreas cancer patients were deparaffinized at about 60° C. for 30 min prior to staining with NEO-101. Subsequently, all staining steps were carried out at about 25° C. Slides (4 μm) were blocked with Peroxo-Bloc® inhibitor (Zymed Laboratories) for about 2 min, rinsed with phosphate-buffered saline (PBS), and blocked with CAS (Zymed) for an additional about 10 minutes. Slides were stained with about 10 μg/mL of biotin-labeled NEO-101 for 1 hour, and washed three times with PBS containing 0.05% Tween®-20 non-ionic detergent. […]
All antibodies were biotinylated prior to use and tested independently at various concentrations using human tumor tissues known to react with the antibodies. Primary antibody (NEO-101) was used at about 10 μg/mL, detected with streptavidin-horseradish peroxidase conjugate, and mounted on slides. A positive staining scale ranging from +1 to +5 was applied to the staining results, measured by light microscopy. […]

CFPAC-1 cells = test: Immunofluorescence staining with MUC5AC antibodies; assay type: cell-based, human; settings: 2 μg/ml antibody
Description: LS174T and CFPAC-1 cells were grown on cover slips coated in FBS for 48 hours. Cells were then fixed with 4% PFA in PBS, washed with PBS, permeabilized with 0.2% Triton X-100, washed with PBS and blocked with 1% BSA in PBS. Cells were incubated with either 2 μg/ml NEO-101, MS-X, 2-11M1, H160, 351-450, 2-12M1, or 1-13M1. Cells were washed with PBS and then second antibody was added anti-human-FITC, anti-mouse-FITC or anti-rabbit-FITC (1:500), cells were washed and mounted on slides with DAPI hard mount. Cover slides were allowed to sit over night at 4° C. Slides were visualized with a Nikon Eclipse Ti microscope with an Andor camera.

LS174T colorectal tumor = LS174T colorectal tumor xenograft model; assay type: in vivo, nude mice; settings: same treatment regimen; last day P=0.0145
Description: Since the LS174T colorectal tumor cell line served as a good target in vitro in the ADCC assay, this cell line was used in a xenograft tumor model. The LS174T cells were implanted subcutaneously in nude mice and the same treatment regimen was administered to these mice. […] Nonetheless, we observed a 2-3-fold reduction in tumor growth in NEO-101 treated mice compared to the 2 control groups of mice following the treatment cycles. The anti-tumor effect upon treatment with NEO-101 was significant on the last day of measuring tumors with P=0.0145 by one-way ANOVA. However, many of the tumors in the control groups became ulcerated and were greater than 1000 mm^3 and the study was terminated.

Normal colon = test: Immunohistochemistry: human tissues with biotinylated NEO-101; assay type: binding
Source text: (§1) Consequently, the positively stained “normal” tissues may have already undergone genotypic changes (“pre-cancerous”) resulting in the expression of the aberrantly glycosylated MUC5AC antigen that could lead to detection of carcinoma with NEO-101.

Normal prostate = test: as above; assay type: binding
Source text: as §1

Colon cancer = test: as above; assay type: binding
Source text: as §1

Normal uterus = test: as above; assay type: binding
Source text: as §1

Uterus cancer = test: as above; assay type: binding
Source text: as §1

Prostate cancer = test: as above; assay type: binding
Source text: as §1

Pancreas cancer = test: as above; assay type: binding
Source text: as §1

Normal pancreas = test: as above; assay type: binding
Source text: as §1

B1: NEO-101: Chimeric NEO-101 antibody, engineered in CHO-DG44 production cell clone 4B7; targets a variant of MUC5AC (protein)
light: QVVLTQSPVIMSASPGEKVTMTCSASSSISYMYWYQQKPGTSPKRWIYDTSKLASGVPARFSGSGSGTSYSLTISNMEAGDAATYYCHQRDSYPWTFGGGTNLEIK
heavy: QVQLKESGPDLVAPSQSLSITCTVSGFSLSKFGVNWVRQPPGKGLEWLGVIWGDGSTSYNSGLISRLSISKENSKSQVFLKLNSLQADDTATYYCVKPGGDYWGHGTSVTVSS
For B1, the “patient tumor samples considered positive (+1 to +5)” value [1] was 79%, the “patient tumor samples considered positive, samples/total” value [1] was 30 of 38 and 30/38 and the cells stained (CFPAC-1 cells) was “about 50%”. The “reduction in tumor growth compared to the 2 control groups” value (LS174T colorectal tumor) was 2-3 fold, the “Tissue staining intensity +2” value (Normal colon) was “(25%)” and the “Tissue staining intensity Negative” value (Normal colon) was “(75%)”. For the same molecule, the “Total Positive” value (Normal colon) was “(25%)”, the “Tissue staining intensity +2” value (Normal colon; samples/total) was 1/4 and the “Tissue staining intensity Negative” value (Normal colon; samples/total) was 3/4. The “Total Positive” value (Normal colon; samples/total) was “one of four and 1/4”, the “Tissue staining intensity Negative” value (Normal prostate) was “(100%)” and the “Total Positive” value (Normal prostate) was “(0%)”. For the same molecule, the “Tissue staining intensity Negative” value (Normal prostate; samples/total) was 4/4, the “Total Positive” value (Normal prostate; samples/total) was 0/4 and the “Tissue staining intensity +1” value (Colon cancer) was “(15%)”. For the same molecule, the “Tissue staining intensity +2” value (Colon cancer) was “(8%)”, the “Tissue staining intensity +4” value (Colon cancer) was “(10%)” and the “Tissue staining intensity Negative” value (Colon cancer) was “(56%)”. The “Tissue staining intensity Weak” value (Colon cancer) was “(10%)”, the “Tissue staining intensity +1” value (Colon cancer; samples/total) was 7/48 and the “Tissue staining intensity +2” value (Colon cancer; samples/total) was 4/48. The “Tissue staining intensity +4” value (Colon cancer; samples/total) was 5/48, the “Tissue staining intensity Negative” value (Colon cancer; samples/total) was 27/48 and the “Tissue staining intensity Weak” value (Colon cancer; samples/total) was 5/48. The “Total Positive” value (Colon cancer; samples/total) was 21/48, the “Tissue staining intensity Negative” value (Normal uterus) was “(100%)” and the “Total Positive” value (Normal uterus) was “(0%)”. For the same molecule, the “Tissue staining intensity Negative” value (Normal uterus; samples/total) was 12/12, the “Total Positive” value (Normal uterus; samples/total) was 0/12 and the “Tissue staining intensity +2” value (Uterus cancer) was “(5%)”. The “Tissue staining intensity +3” value (Uterus cancer) was “(19%)”, the “Tissue staining intensity Negative” value (Uterus cancer) was “(76%)” and the “Total Positive” value (Uterus cancer) was “(24%)”. For the same molecule, the “Tissue staining intensity +2” value (Uterus cancer; samples/total) was 2/42, the “Tissue staining intensity +3” value (Uterus cancer; samples/total) was 8/42 and the “Tissue staining intensity Negative” value (Uterus cancer; samples/total) was 32/42. For the same molecule, the “Total Positive” value (Uterus cancer; samples/total) was 10/42, the “Tissue staining intensity +1” value (Prostate cancer) was “(12%)” and the “Tissue staining intensity +2” value (Prostate cancer) was “(12%)”. The “Tissue staining intensity Negative” value (Prostate cancer) was “(75%)”, the “Total Positive” value (Prostate cancer) was “(25%)” and the “Tissue staining intensity +1” value (Prostate cancer; samples/total) was 5/40. The “Tissue staining intensity +2” value (Prostate cancer; samples/total) was 5/40, the “Tissue staining intensity Negative” value (Prostate cancer; samples/total) was 30/40 and the “Total Positive” value (Prostate cancer; samples/total) was 10/40. The “Tissue staining intensity +1” value (Pancreas cancer) was “(16%)”, the “Tissue staining intensity +2” value (Pancreas cancer) was “(6%)” and the “Tissue staining intensity +3” value (Pancreas cancer) was “(17%)”. For the same molecule, the “Tissue staining intensity +4” value (Pancreas cancer) was “(9%)”, the “Tissue staining intensity Negative” value (Pancreas cancer) was “(52%)” and the “Tissue staining intensity +1” value (Pancreas cancer; samples/total) was 17/108. The “Tissue staining intensity +2” value (Pancreas cancer; samples/total) was 7/108, the “Tissue staining intensity +3” value (Pancreas cancer; samples/total) was 18/108 and the “Tissue staining intensity +4” value (Pancreas cancer; samples/total) was 10/108. For the same molecule, the “Tissue staining intensity Negative” value (Pancreas cancer; samples/total) was 56/108, the “Total Positive” value (Pancreas cancer; samples/total) was 52/108 and the “Tissue staining intensity Negative” value (Normal pancreas) was “(100%)”. For the same molecule, the “Total Positive” value (Normal pancreas) was “(0%)”, the “Tissue staining intensity Negative” value (Normal pancreas; samples/total) was 3/3 and the “Total Positive” value (Normal pancreas; samples/total) was 0/3.
